Test results published in patent US20260144882A1 (BIO THERA SOLUTIONS, published 2026).
Substitutions are numbered along the chain they refer to. Where two headings read alike, the source gives them in different places.

B1: antibody 1G8-1E10 (antibody, human IgG1, kappa, V domains shown)
VH: EVQLVESGGGLVQPGGSLRLSCAASGDSFSTYAMSWVRQAPGKGLEWVSRISGSGDGKDYADSVKGRFTISRDNSKNTLYLQMNSLRAEDTAVYYCARQTEDRSYGYDLDYWGQGTLVTVSS
VL: DIQMTQSPSSLSASVGDRVTITCRASQGISSYLAWYQQKPGKAPKLLIYAASSLQSGVPSRFSGSGSGTDFTLTISSLQPEDFATYYCQQHYTTPPTFGQGTKVEIKR
B2: antibody 1G8-1G3 (antibody, human IgG1, kappa, V domains shown)
VH: B1 VH with D27F, S28N, S30G, S54I, G55S, D56A, K58T, D59N
VL: B1 VL
B3: antibody 1G8-2C6 (antibody, human IgG1, kappa, V domains shown)
VH: B1 VH with S28N, T31S, S52Y, G55D, D56S, G57T, K58P
VL: B1 VL
B4: antibody 1G8-2F2 (antibody, human IgG1, kappa, V domains shown)
VH: B1 VH with S28I, S30G, T31S, G53S, S54H, D56A, G57S, K58R
VL: B1 VL
B5: antibody 1G8-2G8 (antibody, human IgG1, kappa, V domains shown)
VH: B1 VH with D27F, S28N, S30T, T31N, G53T, S54Y, G57T, K58T, D59H
VL: B1 VL
B6: antibody 10F4-1C3 (antibody, human IgG1, kappa, V domains shown)
VH: EVQLVESGGGLVQPGGSLRLSCAASGYSFSDYWMSWVRQAPGKGLEWVSSIKQTGGVKHYADSVKGRFTISRDNSKNTLYLQMNSLRAEDTAVYYCAREYSDVVDYVSVRTPLDYWGQGTLVTVSS
VL: B1 VL
B7: antibody 10F4-1C10 (antibody, human IgG1, kappa, V domains shown)
VH: B6 VH with S28N, S30G, D31S, W33D, S50G, Q53T, T54Y, V57N, K58T
VL: B1 VL
B8: antibody 10F4-1E1 (antibody, human IgG1, kappa, V domains shown)
VH: EVQLVESGGGLVQPGGSLRLSCAASGDIFGNYWMSWVRQAPGKGLEWVSSIDASSGNRFYADSVKGRFTISRDNSKNTLYLQMNSLRAEDTAVYYCAREYSDVVDYVSVRTPLDYWGQGTLVTVSS
VL: B1 VL
B9: antibody 10F4-1F1 (antibody, human IgG1, kappa, V domains shown)
VH: B8 VH with D27F, I28S, G30S, S50A, D52S, A53P, S54G, S55D, N57T, R58I
VL: B1 VL
B10: antibody 10F4-1F8 (antibody, human IgG1, kappa, V domains shown)
VH: B6 VH with S28T, S30T, W33D, K52I, Q53T, T54D, V57G, K58A, H59F
VL: B1 VL
B11: antibody 10F4-1G7 (antibody, human IgG1, kappa, V domains shown)
VH: B6 VH with S28N, S30G, W33D, K52I, Q53G, T54H, G56D, V57T, H59F
VL: B1 VL
B12: antibody 10F4-1H6 (antibody, human IgG1, kappa, V domains shown)
VH: EVQLVESGGGLVQPGGSLRLSCAASGFNFYDYDMSWVRQAPGKGLEWVSGIKTHSGGNGYADSVKGRFTISRDNSKNTLYLQMNSLRAEDTAVYYCAREYSDVVDYVSVRTPLDYWGQGTLVTVSS
VL: B1 VL
B13: antibody 10F4-1H11 (antibody, human IgG1, kappa, V domains shown)
VH: B6 VH with S28T, S30T, D31G, Y32F, K52S, Q53P, T54D, G55S, V57T
VL: B1 VL
B14: antibody 1F3-1A9 (antibody, human IgG1, kappa, V domains shown)
VH: EVQLVESGGGLVQPGGSLRLSCAASGYSFDNYAMSWVRQAPGKGLEWVSRISPTGGYASYADSVKGRFTISRDNSKNTLYLQMNSLRAEDTAVYYCARAELLAFDVYTASDYWGQGTLVTVSS
VL: B1 VL
B15: antibody 1F3-1D12 (antibody, human IgG1, kappa, V domains shown)
VH: EVQLVESGGGLVQPGGSLRLSCAASGYNFTDYGMSWVRQAPGKGLEWVSGISGSGDNKYYADSVKGRFTISRDNSKNTLYLQMNSLRAEDTAVYYCARAELLAFDVYTASDYWGQGTLVTVSS
VL: B1 VL
B16: antibody 1F3-1F8 (antibody, human IgG1, kappa, V domains shown)
VH: B15 VH with Y27F, T30G, D31N, G50R, S54D, D56S, K58I, Y59N
VL: B1 VL
B17: antibody 1F3-1G7 (antibody, human IgG1, kappa, V domains shown)
VH: B15 VH with Y27D, N28I, T30S, D31N, G33S, S52Y, G53P, N57S, K58R, Y59R
VL: B1 VL
B18: antibody 1F3-2B9 (antibody, human IgG1, kappa, V domains shown)
VH: B15 VH with Y27F, T30D, D31S, G33A, S52K, G53P, S54H, G55T, N57D, K58I
VL: B1 VL
B19: antibody 1F3-2D2 (antibody, human IgG1, kappa, V domains shown)
VH: B14 VH with Y27F, S28N, D30S, N31S, A33G, T54Y, G55T, Y57T, A58T, S59H
VL: B1 VL
B20: antibody 1G8-2B3 (antibody, human IgG1, kappa, V domains shown)
VH: EVQLVESGGGLVQPGGSLRLSCAASGYNFTTSAMSWVRQAPGKGLEWVSRIYQDSSTTDYADSVKGRFTISRDNSKNTLYLQMNSLRAEDTAVYYCARQTEDRSYGYDLDYWGQGTLVTVSS
VL: B1 VL
B21: antibody 1F3-1F4 (antibody, human IgG1, kappa, V domains shown)
VH: B15 VH with Y27D, N28I, D31G, Y32S, G33S, S52Y, G53A, D56S, N57D, Y59R
VL: B1 VL
B22: antibody 1F3-1H3 (antibody, human IgG1, kappa, V domains shown)
VH: B15 VH with Y27F, T30Y, D31N, S52K, G53P, S54H, G55S, N57V, K58A, Y59H
VL: B1 VL

Assays:
[1] = biological target: T1, human Nectin-4 extracellular antigen hNectin-4-His (human, UniProt Q96NY8 32-349); test: SPR, antibody on Protein A chip, 1:1 fit
T1 construct: C-terminal 8xHis tag included
T1 sequence: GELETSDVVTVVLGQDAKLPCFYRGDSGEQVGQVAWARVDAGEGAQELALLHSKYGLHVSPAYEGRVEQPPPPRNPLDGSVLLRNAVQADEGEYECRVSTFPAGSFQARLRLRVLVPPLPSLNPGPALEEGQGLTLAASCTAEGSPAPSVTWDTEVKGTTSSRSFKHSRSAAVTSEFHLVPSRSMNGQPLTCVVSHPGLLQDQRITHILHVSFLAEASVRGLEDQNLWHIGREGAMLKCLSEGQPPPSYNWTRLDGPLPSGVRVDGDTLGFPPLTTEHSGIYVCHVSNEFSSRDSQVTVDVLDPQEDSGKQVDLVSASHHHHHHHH
From the text: In this study, the affinity of the antibodies for the human Nectin-4 extracellular antigen was detected by surface plasmon resonance (SPR) technique (BIAcore: GE Healthcare, T200).

[2] = biological target: T1, human Nectin-4 extracellular antigen …; test: ELISA, coated hNectin-4-His
From the text: (§1) The binding activity of the antibodies was detected by ELISA.

[3] = biological target: T1, human Nectin-4 extracellular antigen …; test: ELISA, coated hNectin-4-His; remark: listed apart in the source
From the text: as §1

Binder | Kd [1] [nM] | koff [1] [s⁻¹] | kon [1] [M⁻¹ s⁻¹] | EC50 [2] [ng/mL] | EC50 [3] [ng/mL]
B1 | 1.31 | 0.00087 | 665000 | 6 | –
B2 | 3 | 0.00141 | 471000 | 4 | –
B3 | 1.87 | 0.00137 | 734000 | 5 | –
B4 | 2.12 | 0.00166 | 784000 | 12 | –
B5 | 1.87 | 0.00142 | 758000 | 6 | –
B6 | 0.589 | 0.000218 | 370000 | – | 53
B7 | 0.435 | 0.000116 | 265000 | – | 58
B8 | – | – | – | – | 67
B9 | – | – | – | – | 57
B10 | 0.558 | 0.000237 | 424000 | – | 54
B11 | 0.374 | 0.000145 | 389000 | – | 68
B12 | 0.505 | 0.000151 | 299000 | – | 63
B13 | 0.605 | 0.000212 | 350000 | – | 59
B14 | 0.641 | 0.000994 | 1.55e+06 | 7 | –
B15 | – | – | – | 7 | –
B16 | 0.564 | 0.000966 | 1.71e+06 | 8 | –
B17 | 0.743 | 0.000596 | 802000 | 8 | –
B18 | 0.552 | 0.00101 | 1.82e+06 | 9 | –
B19 | – | – | – | 15 | –
B20 | 1.98 | 0.00147 | 742000 | 5 | –
B21 | – | – | – | 9 | –
B22 | 0.62 | 0.00105 | 1.69e+06 | 8 | –
